B1: Vinculin (Gallus gallus (Chicken)), P12003-1 (parent)
chain: MPVFHTRTIESILEPVAQQISHLVIMHEEGEVDGKAIPDLTAPVSAVQAAVSNLVRVGKETVQTTEDQILKRDMPPAFIKVENACTKLVRAAQMLQADPYSVPARDYLIDGSRGILSGTSDLLLTFDEAEVRKIIRVCKGILEYLTVAEVVETMEDLVTYTKNLGPGMTKMAKMIDERQQELTHQEHRVMLVNSMNTVKELLPVLISAMKIFVTTKNTKSQGIEEALKNRNFTVEKMSAEINEIIRVLQLTSWDEDAWASKDTEAMKRALALIDSKMNQAKGWLRDPNAPPGDAGEQAIRQILDEAGKAGELCAGKERREILGTCKTLGQMTDQLADLRARGQGATPMAMQKAQQVSQGLDLLTAKVENAARKLEAMTNSKQAIAKKIDAAQNWLADPNGGSEGEEHIRGIMSEARKVAELCEEPKERDDILRSLGEISALTAKLSDLRRHGKGDSPEARALAKQIATSLQNLQSKTNRAVANTRPVKAAVHLEGKIEQAQRWIDNPTVDDRGVGQAAIRGLVAEGRRLANVMMGPYRQDLLAKCDRVDQLAAQLADLAARGEGESPQARAIAAQLQDSLKDLKARMQEAMTQEVSDVFSDTTTPIKLLAVAATAPSDTPNREEVFEERAANFENHAARLGATAEKAAAVGTANKTTVEGIQATVKSARELTPQVVSAARILLRNPGNQAAYEHFETMKNQWIDNVEKMTGLVDEAIDTKSLLDASEEAIKKDLDKCKVAMANMQPQMLVAGATSIARRANRILLVAKREVENSEDPKFREAVKAASDELSKTISPMVMDAKAVAGNISDPGLQKSFLDSGYRILGAVAKVREAFQPQEPDFPPPPPDLEHLHLTDELAPPKPPLPEGEVPPPRPPPPEEKDEEFPEQKAGEAINQPMMMAARQLHDEARKWSSKGNDIIAAAKRMALLMAEMSRLVRGGSGNKRALIQCAKDIAKASDEVTRLAKEVAKQCTDKRIRTNLLQVCERIPTISTQLKILSTVKATMLGRTNISDEESEQATEMLVHNAQNLMQSVKETVREAEAASIKIRTDAGFTLRWVRKTPWYQ

Variants of: B1
Conditions: with acts_rabit ACTA1, P68135

effect of a mutation on the interaction | Variant
decreasing interaction strength | I997A
decreasing interaction strength | V1001A
